Assay: label from the status in PepcDB records

Sequence	protein production
MSLKITEVKAHALSTPIPERMRVESGAGLKLNRQMILVEVRTDEGVTGVGSPSGPYDLAVLKRAIEDVIGPQLIGEDPANINYLWHKVFHGEVSRNLGHRSVGIAAMSGVDIALWDLKGRAMNQPIYQLLGGKFHTRGVRAYASSIYWDLTPDQAADELAGWVEQGFTAAKLKVGRAPRKDAANLRAMRQRVGADVEILVDANQSLGRHDALAMLRILDEAGCYWFEEPLSIDDIEGHRILRAQGTPVRIATGENLYTRNAFNDYIRNDAIDVLQADASRAGGITEALAISASAASAHLAWNPHTFNDIITVAANLHLVAASPHPAMFEWDITHNDLMTRLASYDLKLENGLVQPPQGPGLGFEIDWDFVAAHAWKGEPAIGAGHGMKKEGHHHHHH	not failed
MSLKITSIEVFDCELKKRDQTMSSYNPVLIRVNTDSGLSGIGEVGLAYGAGAKAGVGIIRDLAPLIVGEDPLNIEKIWEFFFRKTFWGMGGGNVFYAGMSAIDIALWDIKGKYLGVPVYQLLGGKTNEKLRTYASQLQFGWGDKRHILVTPEEYAEAARAALDDGYDAIKVDPLEIDRNGDDCVFQNRNRNYSGLLLADQLKMGEARIAAMREAMGDDADIIVEIHSLLGTNSAIQFAKAIEKYRIFLYEEPIHPLNSDNMQKVSRSTTIPIATGERSYTRWGYRELLEKQSIAVAQPDLCLCGGITEGKKICDYANIYDTTVQVHVCGGPVSTVAALHMETAIPNFIIHEHHTNAMKASIRELCTHDYQPENGYYVAPEQPGLGQELNDEVVKEYLAYVIKEGHHHHHH	not failed
MSLKIYGVYRSRASRPLWLLAELDLPFEHVPVIQANRVAHPHGPEAPLNTASAAYLAVNPLGQIPCLEEEGLILTESLAITLHIARTQGGQLGPRSEPEDALMVSWSLFAATAVEPPALEIQLIQRSGGGTSPEGQAAIAIAAERLRRPLARLERHFAAEDYLVGGRFTVADLNLAETLRYGQAHPALLEPFPAVAAWLDRCQSRPAFRLMMERRAAEGHHHHHH	not failed
MSLKYLGVYVMEVQKNSSFKNKLQIGDTVLGANGHRFHSTEEMMTYLRKQKINSKVTISVLRGKEKLEHHHHHH	failed
MSLLESIAVVINLLGVWLTARRIRWCWPVGIVAVALYAWLFYQWKLYSDMLLQGVYVLTQLYGWWHWQPGTAADTRIRPLPMPSAERWLSLGIGAAFAATLGAYMHYRTDAVLPWLDAALASFSLVASVWAARKRIANWVLWIVLDCVYVGVFISKGLYPTAVLYAGFVALAVYGWHSWKTQQNQNLAVAR	failed
MSLMDYFAIHVVPKLYRGKGAFHPAETGKLTETVSCVREYDVNIFFIRKGNTLIAIDSGYKNHHALLPGCKKIEIDPKAVQALFLTHADPDHAGGLDIRCENCFINAEIYLGEIEENYLTNTIYRKKIGPFGLKNSVKIKDNYHLLKDGQSVSVGDLTIQPFLVPGHTLGHLMYLIDNELLFTGDSIALNQEGGWCFFDLFNYNSEMNIKSLKTLKEKLDLNRIKYVFTSHNGFTDKAKEAFAHVDVIPKWNEKGFIFDKTAPYDCFAD	failed
MSLNARARALRHSRSGTIGLIVPDVNNAVFADMFSGVQMAASGHSTDVLLGQIDAPPRGTQQLSRLVSEGRVDGVLLQRREDFDDDMLAAVLEGVPAVTINSRVPGRVGSVILDDQKGGGIATEHLITLGHSRIAFISGTAIHDTAQRRKEGYLETLASAGLRSEAAWVVDAGWEADAGSAALNTLYRGANLGKPDGPTAVVVASVNAAVGALSTALRLGLRVPEDLSIVGINTTWVSDTVYPALTTVRLPLQRLGEVAADVLMEHLGGRALTDTVVTQPTPELLVRETTAPPTREGHHHHHH	not failed
MSLNERILLVDDDYSLLNTLKRNLSFDFEVTTCESGPEALACIKKSDPFSVIMVDMRMPGMEGTEVIQKARLISPNSVYLMLTGNQDLTTAMEAVNEGQVFRFLNKPCQMSDIKAAINAGIKQYDLVTEGHHHHHH	not failed
MSLNETYMMITFQSGMDYWKRCLKGFEDAAQALNVTVEYRGAAQYDIQEQITVLEQAIAKNPAGIAISAIDPVELTDTINKAVDAGIPIVLFDSGAPDSHAHSFLGTNNYNAGMNAAYKMAELLDGEGEVAVITLPNQLNHQERTTGFKETLEAEFPAIEVIAVEDGRGDSLHSRRVAHQLLEDYPNLAGIFATEANGGVGVGDAVRLESRAGEIQIISFDTDKGTLDLVDEGIISATLAQGTWNMGYWSLTYLFHLHHGLTEPQILQTREEAPLPLYVDTGITIVTDENVDYYYADEGHHHHHH	not failed

From a protein production outcome set (Wang et al. 2014)
